Assay results: publication PMC3715500

Molecular target: Rac-GFP (UniProt P63000)
Test: FRET or BRET; FLIM-FRET (donor lifetime, time-gated fast-FLIM prototype, five gates of 2.25 ns, up to 1 FLIM image per s) in living 3T3 cells co-transfected with donor Rac-GFP and acceptor PBD-mCherry or mCherry alone; analysed by mfD, polar approach and moments method

PBD-mCherry (domain or fragment), sequence (Q13153 2-545): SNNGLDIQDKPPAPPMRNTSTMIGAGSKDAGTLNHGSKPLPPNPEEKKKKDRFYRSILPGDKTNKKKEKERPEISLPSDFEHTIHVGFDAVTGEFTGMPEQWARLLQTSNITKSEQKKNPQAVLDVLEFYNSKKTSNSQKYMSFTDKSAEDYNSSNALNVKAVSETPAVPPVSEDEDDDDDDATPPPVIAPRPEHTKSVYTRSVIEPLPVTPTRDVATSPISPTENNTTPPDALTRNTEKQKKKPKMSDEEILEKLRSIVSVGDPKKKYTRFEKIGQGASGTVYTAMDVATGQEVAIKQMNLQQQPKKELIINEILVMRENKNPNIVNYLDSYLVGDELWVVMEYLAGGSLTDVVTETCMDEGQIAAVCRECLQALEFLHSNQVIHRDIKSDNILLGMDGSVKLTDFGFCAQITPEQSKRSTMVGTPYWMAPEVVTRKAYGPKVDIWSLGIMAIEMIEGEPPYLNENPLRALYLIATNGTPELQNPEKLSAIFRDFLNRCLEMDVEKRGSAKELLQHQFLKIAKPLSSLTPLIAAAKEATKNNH

## PBD-mCherry (domain or fragment)
  mean donor lifetime <τ> (population of cells, n = 10): 2.37 ns
  mean donor lifetime <τ> (single cell, corrected): 2.21
  minimal fraction of interacting donor mfD (representative cell): 0.19
  non-corrected average donor lifetime (representative cell): 2.3 ns
